Test results: the RNAGym collection of RNA variant scans (doi:10.1073/pnas.2313332121)

B1: TPR t1 (parent)
chain: GACCAAUCUGCCCUCAGAGCUCGAGAACAUCUUCGGAUGCAGAGGAGGCAGGCUUCGGUGGCGCGAUAGCGCCAACGUCCUCAACCUCCAAUGCAUCCCACCACAUGAUGAUGCCUGAAGAGCCUUGGUUUUUUG

Variants of: B1
Assay: polymerase ribozyme fitness, log enrichment relative to wild type (log ratio); higher = more active; in vitro selection for triplet polymerase activity
Procedure, shortened: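 Frozen incubation at −7 °C formed the core of a single, triplicate in vitro selection round applied to PCR-built, transcribed mutant libraries of each subunit of a heterodimeric triplet polymerase ribozyme. Extended constructs were gel-excised, captured with streptavidin beads and amplified by RT-PCR, and input and output libraries were Illumina-sequenced with a filter of ≥10 input reads and ≥1 read per output. Fitness is the logarithm of genotype enrichment relative to wild-type enrichment, with inverse-variance-weighted replicate averaging, and the logarithm is base 2.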

Variant | polymerase ribozyme fitness (log ratio)
G71A C86A C114A | -3.9
C72A A83U | -0.322
C72A U130A | -0.443
C72A U87G A111G | 0.26
G71U C89A U132A | -2.07
C72G U126G | -2.09
G71C G93U C104U A119G | -1.16
G71A G128C | -3.14
C72A C124G | 2.23
C72A C124A | 1.27
C70A G128C | -4.69
C70U C104U | -0.703
C72A U131C | -0.247
C70U G120C U132C | 0.806
C72U A83C C115G | -1.78
C70U G120U | 0.0972
C70U C97A G113C A119U G127C | -5.36
C72A C88G C124A | 1.33
C70A C72G C102A C104A | -6.86
C72G G117U | -2.41
C72G G117A | -1.8
C70U C80U G113C A119G | -3.1
C73A A84U C88A G110A C123A U126C | -4.76
C70U G117A | -1.99

Variant | polymerase ribozyme fitness (log ratio)
C70U A105G G113A | -4.28
C72G U81G C97U | -4.63
G71A C82U G110U | -2.94
C70U C97U C123G U126A | -0.00382
C70U C80A | -5.7
C72U A83U C98U | -0.271
C72G C88U U129A | -0.881
C72G U81A C82G G128C | -4.54
C70A G120A | -0.62
C70G C72U | -2.61
G71C U81G | -5.8
C70U U112C | 0.987
G71C G113U | -2.72
G71A U106A U133A | -1.42
C72U C98U | -1.53
G71C C79G | -1.96
C72U G120C | 0.644
C72U G120A | 0.502
C72U C86U U126G | -2.65
G71A G120A | -0.000691
C70U C85U U126A | -3.11
C70G U96C | -2.6
C72G C82G | -1
C72G C82A | -1.18

Variant | polymerase ribozyme fitness (log ratio)
C70G C115G | -3.68
C70A G117U | -4.09
G71A A118G | -0.577
C72G C123U | 0.62
C70A C85U G113A | -3.33
G71U C99A | -7.48
C70G C88A | -4.74
C70G C88U | -2.98
C70G C72G G110U | -6.42
G71A C89U A111U U112A C123A G127C | -2.37
C72A C89A | -0.502
C72A C89U | -0.157
C72G C94U | 0.173
C72U C82U C98U A119G | -0.0419
C70A C86G C102A | -4.88
C72G G107A | -4.9
G71C C123U | -0.362
C70U U96A G120A | -0.134
C72U C104U | -0.541
C72A A83U C123G U126A | 0.126
C70U G110U | -2.59
C72A A103U C124G U131C | -2.63
C70A U109C | -4.18
C70A U109G | -5.72

Variant | polymerase ribozyme fitness (log ratio)
C72U C88A C101A | -1.43
C72U C94G A103G G113U U126A | -5.45
C72G C101U | -0.7
C72G C101A | -0.799
G71A U92A A95U | -4.72
G71C A74U C89U G110C U125A U129A | -7.38
C70U A90G U106A | 0.297
G71U A95C C101U G127A | -3.11
C70U C79U G93U | -2.15
C72G C114U | -2.37
G71A C124A | 1.21
G71U G122U | -0.542
C72A U125G U131A | -0.709
C72U C79A A83G C115G C123A U131G | -4.99
C72G U92C | -1.36
C72U G110A | -1.45
C72U G110U | -1.17
C70G G117U | -4.3
C70G C124U G128C | -3.97
C72U C98U U116A | -4.95
C70A G93C | -3.33
G71A U132A | -0.617
C70G U126C | -3.27
C70U C82G | -0.344

Variant | polymerase ribozyme fitness (log ratio)
C72U C99U | -3.71
C70A C98U | -2.73
C72U G120C U131G | 0.516
C72G G77U C85U U106A U109A | -7.01
C72U G77U | -0.309
G71U C124A | 2.05
G71U U131A U133G | -1.3
C70G C104U G127C | -2.51
C72U G128U | -1.48
C70G C94U | -3
C72U U96A | -1.65
C70A C80A U126C | -5.37
G71U C97U U112A | 1.1
C72U A105G | -3.04
C70U C82G C124A U130C | 0.602
C70A C99U | -5.26
C70G U129C | -3.02
C70U G107C G122A | -5.12
C72U C86A A90G G110A | -1.38
C70G A83C | -2.96
C70G A83G | -4.15
C70A C101A | -2.43
G71U U87C | -0.194
C72U A75U C114A G122C | -2.52

Variant | polymerase ribozyme fitness (log ratio)
C72G G117C A119U | -0.356
C72A C114U | -1.24
C70U U78G | -0.747
C70U U78C | -1.4
C72G G117C U130G | -4.4
C70A U130G | -2.49
C72U C114U | -1.89
G71C G135U | -2.55
G71A G93A G117A G120C | -2.99
C70U A90G C101A C123A | -1.13
C70U C114A | -2.33
C72G A119G | 1.3
G71U C72U A118G | -0.476
C72G U106A | -0.511
C73A A91U | -0.926
C73A A91G | -0.975
C72G A91G | -1.13
C72G A91C | -1.51
C70G A90C C114U A121G | -4.76
C72U C99U A119U | -3.8
C73A C82U | -0.0503
C70A U78C G113A | -2.47
C72A C98A U131A | -5.63
G71A G113C | -2.6

Variant | polymerase ribozyme fitness (log ratio)
C72A C82A U87A | -0.837
C70G G135U | -3.49
C72A G110A | -1.01
C70U A105C | -3.43
C70A C89U | -2.29
C72U A75C A118U G120U | -0.721
C72A C86A | -0.267
C72G U87A | -2.08
C72U C102A | -1.81
C72U C102G | -5.51
C72U U87G C89U C123A | 0.156
C72U | -0.393
C72A | 0.126
C72G | -0.25
C70A C114A | -2.64
C70G U130G U131G | -4.28
G71C U78A | -0.14
G71A C97U | -1.06
C72G C89U | -0.34
G71C A83U G113U | -4.07
G71C C72A | -6.22
G71U C79G | -2.2
G71A G110A C115U | -5.43
